Test results: ChEMBL document CHEMBL1148676, “Fluorogenic ester substrates to assess proteolytic activity” (Bioorg Med Chem Lett, 2006)
Values belong to the molecule of their own block, whether it stands above or below them. Activity calls are given as the source filed them. No cut-off for these calls is given here.

Assays:
[1] = target: Cathepsin B (Homo sapiens) (UniProt P07858); test: (§1) Affinity to cathepsin B
[2] = test system: CC[C@H](NC(=O)OC(C)(C)C)C(=O)Oc1ccc2c(c1)Oc1cc(OC)ccc1C21OC(=O)c2ccccc21; test: as §1; conditions: Homo sapiens
[3] = test system: CC[C@H](NC(=O)OCC1c2ccccc2-c2ccccc21)C(=O)Oc1ccc2c(c1)Oc1cc(OC)ccc1C21OC(=O)c2ccccc21; test: as §1; conditions: Homo sapiens
[4] = test system: COc1ccc2c(c1)Oc1cc(OC(=O)CNC(=O)OCC3c4ccccc4-c4ccccc43)ccc1C21OC(=O)c2ccccc21; test: as §1; conditions: Homo sapiens
[5] = test system: COc1ccc2c(c1)Oc1cc(OC(=O)[C@H](C)NC(=O)OC(C)(C)C)ccc1C21OC(=O)c2ccccc21; test: as §1; conditions: Homo sapiens
[6] = test system: COc1ccc2c(c1)Oc1cc(OC(=O)[C@H](C)NC(=O)OCC3c4ccccc4-c4ccccc43)ccc1C21OC(=O)c2ccccc21; test: as §1; conditions: Homo sapiens
[7] = test system: COc1ccc2c(c1)Oc1cc(OC(=O)[C@H](CC(C)C)NC(=O)OC(C)(C)C)ccc1C21OC(=O)c2ccccc21; test: as §1; conditions: Homo sapiens

- Activity [1]: inactive
Molecule: COc1ccc2c(c1)Oc1cc(OS(=O)(=O)c3ccc(C)cc3)ccc1C21OC(=O)c2ccccc21 (centres undefined)

- Activity [1]: inactive
Molecule: COc1ccc2c(c1)Oc1cc(OC(C)=O)ccc1C21OC(=O)c2ccccc21 (centres undefined)

Molecule: Cathepsin B (Homo sapiens) (from UniProt P07858)
- Km [2]: 2.2 µM
- Km [3]: 7.2 µM
- Km [4]: 7.9 µM
- Km [5]: 4.5 µM
- Km [6]: 7.6 µM
- Km [7]: 2.7 µM

- Activity [1]: inactive
Molecule: COc1ccc2c(c1)Oc1cc(OS(=O)(=O)c3ccc([N+](=O)[O-])cc3)ccc1C21OC(=O)c2ccccc21 (centres undefined)
